# Assay results reported in publication doi:10.1101/2022.07.26.501514, “Structural plasticity of Atg18 oligomers: organization of assembled tubes and scaffolds at the isolation membrane” (bioRxiv, 2022).
# B1: Atg18-PR72AA (Atg2 binding mutant) (natural protein, Saccharomyces cerevisiae, UniProt P43601 1-500, looked up)
# chain: MSDSSPTINFINFNQTGTCISLGTSKGFKIFNCEPFGKFYSEDSGGYAIVEMLFSTSLLALVGIGDQPALSAARLRIINTKKHSIICEVTFPTSILSVKMNKSRLVVLLQEQIYIYDINTMRLLHTIETNPNPRGLMAMSPSVANSYLVYPSPPKVINSEIKAHATTNNITLSVGGNTETSFKRDQQDAGHSDISDLDQYSSFTKRDDADPTSSNGGNSSIIKNGDVIVFNLETLQPTMVIEAHKGEIAAMAISFDGTLMATASDKGTIIRVFDIETGDKIYQFRRGTYATRIYSISFSEDSQYLAVTGSSKTVHIFKLGHSMSNNKLDSDDSNMEEAAADDSSLDTTSIDALSDEENPTRLAREPYVDASRKTMGRMIRYSSQKLSRRAARTLGQIFPIKVTSLLESSRHFASLKLPVETNSHVMTISSIGSPIDIDTSEYPELFETGNSASTESYHEPVMKMVPIRVVSSDGYLYNFVMDPERGGDCLILSQYSILMD
# notes: Atg18, Saccharomyces cerevisiae, Uniprot ID P43601, with P72 and R73 changed to alanines; also called Atg18-P72R73; Atg18-PR72R73; source: E. coli BL21(DE3), purified (Ni-NTA, TEV cleavage, second Ni-NTA, gel filtration Superdex 200); not shown: 6xHis, N-terminal, cleaved
# Molecular target: the molecule itself
# Assay: cryo-EM structure; helical tubes of Atg18, 20 uM in tube buffer (20 mM HEPES, 100 mM KAc, 1 mM DTT, pH 7.2); segmented helical reconstruction, rise 19.4 A, rotation 70.0 degrees
protein,measurement,value
B1,binding result,binds
